Data published in article doi:10.1101/2025.05.02.651972.
pKd: −log10 of the molar value.

Target: recombinant extracellular domain of EGFR (human) (UniProt P00533)
Assay: MST

- pKd: 6.30
Substance: recombinant epiregulin (from UniProt O14944) (ligand)
